Source: the supplement of paper PMC9170038

Tested on: K4 kissing-loop RNA reporter
Test: apparent KD of K4 kissing-loop reporter; higher = weaker reporter binding
Conditions: Eterna round: R107
Method: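 RNA-MaP round R107: designed RNA switches with theophylline, tryptophan, arginine or FMN aptamers are transcribed on-chip within common flanks. They are titrated with a labelled K4 kissing-loop RNA reporter in RNA-MaP buffer (100 mM Tris pH 7.5, 80 mM KCl, 4 mM MgCl2), without ligand or with the indicated ligand. Median apparent KD per design.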

[1] = input ligand: theophylline 20 uM
[2] = input ligand: tryptophan 2.4 mM
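Further: bound reporter read as fluorescence of individual clusters on recovered sequencing chips by microscopy, with normalized cluster intensities fitted with a binding model.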

Sequence	apparent KD of K4 kissing-loop reporter (input ligand: FMN 200 uM) [nM]	apparent KD of K4 kissing-loop reporter (input ligand: arginine 13.2 mM) [nM]	apparent KD of K4 kissing-loop reporter (input ligand: none) [nM]	apparent KD of K4 kissing-loop reporter [1] [nM]	apparent KD of K4 kissing-loop reporter [2] [nM]
UAAUAAAUUCCAGCGAUAUCGCUCUUCGAAGGAGCGGGCGAAAGUCCAGGUAGGUCGCGGAGAGUGAUGUUCUUUGCGGCGCUGG [whbob_Ex_Arginine_A_2t134]	408	315	400	407	244
AAAUCGUUCAGAAGGAGCGUGGAUUAUUCUUAAAUAUUUAUUACGAGUGAUGUUCGUAAUUCACAGGUAGGUCGCUGAUCGAUAA [JR_ExcArginiB_Sub003]	102	137	106	121	105
AGUGGAACUUGCAGGUAUCCACAACUGGAUACCAGCUCGGAAACGAGCCCUUGGCAGCCAGAUCUUGCAGUGAUGUUGCAAGUUC [Design10]	392	323	392	412	381
GUGCAGUGAUGUUGCACGAGGAAAGACGAUACCAGCCGUAAAUAAGGCCCUUGGCAGCGUGGGCUAGCAUAAAGUACGCUAGUCU [Mara]	111	115	109	94	97.1
CACUCGGUAUCAGAUACCAGACUAACGAUACCGAGUGUAUCGGGUAGUGAUGUUACCAUAGUCCCUUGGCAGCUGAUAUUCCCUA [Theo B SS t9a]	252	203	258	210	199
AAGCUCAGCGUGACUCGAUAAGAGUCACAACGAGGACCGGUACGGCCGCCACUCGAAAUAAGAGAGUGAUGUUCUCGCUGAGCAA [#SwitchBubble 6 #StaticStem #K4Late]	631	344	620	824	548
AUUUAAUUAACUGAUACCAGACUUUUUGUUUUGUUUAUUACUAGUGAUGUUAGUGUUUCUGUCCCUUGGCAGCAGUAUCUACUUA [JR_ExcTheophyB_Sub015]	134	202	131	239	122
AAAGAAGUAUACUUCAAGAGGUAUGCUGAUACCAGAGUCAAUUGACUCCCUUGGCAGCGGAUCGAGUGAUGUUCGUAACCUCAAA [AK3 SS Theophylline A]	118	178	153	192	117
UCCUAUACCCUUCCCGGACGCCGUGGAGAUACCAGCCACGUAGCGGGCCCUUGGCAGCUCGAGUGAUGUUCGAGAUCGUCAGGAU [Veteve]	136	124	127	128	135
UUAGCUCUAUAGAGCAAGAGGUCAACUGAUACCAGAGGCUAUAGCCUCCCUUGGCAGCGGAACGAGUGAUGUUCGAGACCUCAUU [AK6 SS Theophylline A]	1280	816	1560	750	1440
UUUGUAUAGGGAAGGAGCGUGAAUGAUAAUGAAUAUAGUGAUGUUAUAUAUAAGAAAGAAUCACAGGUAGGUCGCCCGGAUGAGG [SSArgB.K]	557	400	565	855	412
GUUACGCAUGGAAGGAGCGCUCUCAUACUUAAUAACACAGUGAUGUUGUGAAUUUGUAUAAAGCAGGUAGGUCGCCAUGUGUAAC [Ex Arginine B K4 7]	417	323	424	379	346
AUUUUUUUGUCAGGAUAUUAGUGUUGGUUUGGUUUGUUAGUGAUGUUGAUAUUUGUUUUAUGUAUUUAAGAAGGGAUUUAGCUGU [ppdemullin]	391	359	346	427	278
UUUAAAUAUAGUGAUGUUAUAUAACAAUGACGAGGACCGGUACGGCCGCCACUCGAGAGAGAUAAUGGUCAUACAAAUGUAUGUU [AstrosSSTryA#10]	672	677	738	789	529
CUAUAAGUGCCGAGUGAUGUUCGGCCAAUACGAGGACCGGUACGGCCGCCACUCGGUCAGUGAGUGCCCACCGGGCGUGGCUGAC [Leedgeis]	261	225	209	253	124
GUGCGGCUAGUGAUGUUGGUUGCGUGGGAAGGAGCGCAGAAACAUGCAGGUAGGUCGCCCACACCUCUGAAAGAAGGUUAAUUCA [Biistian]	218	140	203	231	207
